From the RNAGym collection of RNA variant scans (doi:10.7554/elife.90254)

B1: LINE1-full (parent)
chain: UACGUAGGUGGUUUUCCCCUGAUAGUGCUAAGGGGGCCUGGAAGUUUGGACUGGGCAGAGCUCAACACAGCGUGGCAAAGUGGCUGUGGCUAGACUGCCUCUCUGGAUUCCUCGUCACUCAGCAGGGCAUCUCUGAGAGAAAUGCC

Variants of: B1
Assay: self-cleavage, relative activity (ratio to wild type); higher = more cleavage; in vitro, sequencing; the parent is a self-cleaving ribozyme
U9C U45C showed a self-cleavage of 1.27.
For G10A G32A, the self-cleavage was 0.73.
Work on U9C G137A yielded a self-cleavage of 1.15.
G11A U62G showed a self-cleavage of 0.03.
In the case of G10A C90U, the self-cleavage is reported as 0.06.
Work on U9C A141G yielded a self-cleavage of 1.36.
In the case of U9C A141U, the self-cleavage is reported as 1.53.
With G10A A138G the self-cleavage was 1.2.
U9G U81C showed a self-cleavage of 0.83.
Variant G11U U20C has a self-cleavage of 0.34.
Variant G11A U52G has a self-cleavage of 1.56.
In the case of U9C U26C, the self-cleavage is reported as 1.35.
For G11A A78G, the self-cleavage was 1.38.
In the case of U9C A43G, the self-cleavage is reported as 1.12.
Work on U9A C99A yielded a self-cleavage of 0.67.
In the case of U9C C98G, the self-cleavage is reported as 0.22.
Work on G10C U13C yielded a self-cleavage of 0.94.
With U9A C113A the self-cleavage was 0.39.
Work on U9A C113U yielded a self-cleavage of 0.97.
Work on U9C G41A yielded a self-cleavage of 1.06.
In the case of U9A G105A, the self-cleavage is reported as 1.35.
Work on U12A A140G yielded a self-cleavage of 1.51.
In the case of U12A A140U, the self-cleavage is reported as 1.09.
Work on U9C C84A yielded a self-cleavage of 0.26.
U9C U102C gave a self-cleavage of 1.3.
U9C U102A gave a self-cleavage of 1.11.
G10A A67U showed a self-cleavage of 0.07.
In the case of U9C G126U, the self-cleavage is reported as 1.68.
U9G A124C showed a self-cleavage of 0.
With G10A U130G the self-cleavage was 0.93.
Variant G11A G60A has a self-cleavage of 0.01.
For U9C C95G, the self-cleavage was 0.12.
Work on U9A A117U yielded a self-cleavage of 1.11.
In the case of U9A A117G, the self-cleavage is reported as 0.96.
Variant U9C C61U has a self-cleavage of 0.08.
Variant U9A A77U has a self-cleavage of 0.85.
With G11A C95A the self-cleavage was 0.06.
In the case of U9A U47C, the self-cleavage is reported as 1.37.
Variant U9A U14A has a self-cleavage of 1.03.
U9C G106A gave a self-cleavage of 1.71.
For U9C A69G, the self-cleavage was 0.83.
U9A U143G showed a self-cleavage of 1.98.
With U9A U143C the self-cleavage was 0.94.
In the case of U9A U143A, the self-cleavage is reported as 1.34.
U9C A142U showed a self-cleavage of 1.38.
For U9C A142C, the self-cleavage was 0.83.
Work on U9C A142G yielded a self-cleavage of 1.24.
U9A U26A showed a self-cleavage of 0.7.
Variant U9A U26C has a self-cleavage of 1.24.
In the case of G10A C133U, the self-cleavage is reported as 1.31.
Variant U9A U104C has a self-cleavage of 1.17.
U9G U134C showed a self-cleavage of 0.71.
Work on G11C A57G yielded a self-cleavage of 0.71.
For G11A U13C, the self-cleavage was 0.51.
In the case of U12A A142G, the self-cleavage is reported as 1.31.
In the case of U9C U12G, the self-cleavage is reported as 1.15.
In the case of U9C U12C, the self-cleavage is reported as 1.13.
Variant U9C U12A has a self-cleavage of 1.51.
G11U A124U showed a self-cleavage of 1.31.
With G8U U62A the self-cleavage was 0.12.
With U9G A42G the self-cleavage was 1.4.
U9G U62C gave a self-cleavage of 0.16.
Variant U9C C128U has a self-cleavage of 1.52.
For U9G A22G, the self-cleavage was 0.93.
With G10A U85C the self-cleavage was 0.09.
Variant G10A A78U has a self-cleavage of 1.83.
Work on U9C G48C yielded a self-cleavage of 1.09.
Work on U9A A24U yielded a self-cleavage of 1.01.
Variant U9A G72A has a self-cleavage of 0.81.
For G8U A50G, the self-cleavage was 1.19.
U9G U45C gave a self-cleavage of 0.25.
U9G U45A showed a self-cleavage of 0.73.
G11A G49U gave a self-cleavage of 1.35.
With U9G U102A the self-cleavage was 1.44.
For U9A G53A, the self-cleavage was 1.53.
In the case of U9G C68U, the self-cleavage is reported as 0.21.
Variant G11A C28G has a self-cleavage of 1.12.
G10U U130C gave a self-cleavage of 0.81.
In the case of U9C C145A, the self-cleavage is reported as 1.3.
U9C G35C gave a self-cleavage of 1.43.
In the case of G10A A59G, the self-cleavage is reported as 0.17.
Variant G10A U73G has a self-cleavage of 1.14.
With U9A U15A the self-cleavage was 1.07.
In the case of U9A C71A, the self-cleavage is reported as 0.6.
For U9G A77U, the self-cleavage was 1.44.
G11A A65G gave a self-cleavage of 0.02.
Variant U12A A141G has a self-cleavage of 1.19.
G10A U45C gave a self-cleavage of 1.4.
With U9G U96A the self-cleavage was 0.
Variant G10A U12C has a self-cleavage of 1.04.
G11A A142G gave a self-cleavage of 1.23.
G10A U23C gave a self-cleavage of 1.49.
G11A U20C gave a self-cleavage of 2.58.
G11A U20G showed a self-cleavage of 1.05.
U9C C38U gave a self-cleavage of 1.29.
U12A A77G showed a self-cleavage of 1.88.
Variant U9G A140G has a self-cleavage of 0.
For U9A G35C, the self-cleavage was 1.87.
U9A G35A gave a self-cleavage of 1.09.
With U9C U104C the self-cleavage was 1.82.
For U9A A67G, the self-cleavage was 0.58.
U9G A50G gave a self-cleavage of 0.93.
U9C A77G showed a self-cleavage of 1.92.
In the case of G10U U91C, the self-cleavage is reported as 0.44.
With G8U U15C the self-cleavage was 1.62.
Variant U9C A67G has a self-cleavage of 0.48.
U9C A67U gave a self-cleavage of 0.26.
U9A U85C showed a self-cleavage of 0.54.
In the case of U9A U85A, the self-cleavage is reported as 0.09.
Variant U12A C98U has a self-cleavage of 0.41.
Work on G10U U104C yielded a self-cleavage of 2.42.
In the case of G11A U12C, the self-cleavage is reported as 0.33.
With G11A U12G the self-cleavage was 0.47.
With G8U C56U the self-cleavage was 0.28.
U9A A138G gave a self-cleavage of 0.87.
With U9C U96A the self-cleavage was 0.15.
For U9C U96C, the self-cleavage was 0.14.
In the case of U9A A121C, the self-cleavage is reported as 0.46.
Work on U9C A107G yielded a self-cleavage of 1.61.
In the case of U9C A107U, the self-cleavage is reported as 1.59.
U9C C113G gave a self-cleavage of 1.75.
For U9A U87G, the self-cleavage was 0.23.
For U9A U45C, the self-cleavage was 0.91.
Variant U9G G93C has a self-cleavage of 0.11.
Work on G10A A121G yielded a self-cleavage of 1.37.
Variant U9A A141G has a self-cleavage of 1.36.
Work on U9G U47A yielded a self-cleavage of 0.99.
With G11C G48U the self-cleavage was 1.25.
U9C C28A showed a self-cleavage of 1.16.
Work on G8U U143A yielded a self-cleavage of 2.02.
In the case of G10A A22C, the self-cleavage is reported as 1.54.
With G10A A22U the self-cleavage was 1.55.
For G10A A22G, the self-cleavage was 1.09.
In the case of U9C G122A, the self-cleavage is reported as 1.43.
For G11A U108C, the self-cleavage was 1.58.
U9A U109C gave a self-cleavage of 1.34.
Work on U9C A94C yielded a self-cleavage of 0.11.
Work on U9C A94G yielded a self-cleavage of 0.66.
U9C A94U gave a self-cleavage of 0.21.
G10A A50U showed a self-cleavage of 1.32.
In the case of U9G A43G, the self-cleavage is reported as 0.85.
Work on G11U A136U yielded a self-cleavage of 1.26.
With U9A G93A the self-cleavage was 0.06.
With U9A G93U the self-cleavage was 0.3.
G10A A43G showed a self-cleavage of 0.83.
Variant U9C A65U has a self-cleavage of 0.32.
For U9A U108C, the self-cleavage was 0.9.
U9G A141G gave a self-cleavage of 1.51.
In the case of U9G A141U, the self-cleavage is reported as 0.52.
Variant U9A U96A has a self-cleavage of 0.08.
With G11A A124U the self-cleavage was 1.43.
In the case of U9G A31C, the self-cleavage is reported as 1.72.
For U9A G127U, the self-cleavage was 1.92.
Work on U9A U100C yielded a self-cleavage of 1.18.
For U9A A22U, the self-cleavage was 0.89.
G10A U81A gave a self-cleavage of 2.3.
U9G U108C showed a self-cleavage of 1.37.
In the case of G8C U143A, the self-cleavage is reported as 2.06.
For U9C U52A, the self-cleavage was 2.31.
Work on U9C U52C yielded a self-cleavage of 1.36.
G11A C51U showed a self-cleavage of 1.38.
U9G A64U showed a self-cleavage of 0.53.
In the case of U9G A64C, the self-cleavage is reported as 0.18.
For U9A A92U, the self-cleavage was 0.73.
With U9C C76G the self-cleavage was 2.04.
U9C A121U gave a self-cleavage of 1.32.
Work on U9A C16U yielded a self-cleavage of 0.45.
